For one molecule, SEAP activity (HRRE-SEAP reporter in GT1-7 cells) results are on record in patent publication US20050049193A1.

The target in the test is OB-Rb, full-length (long isoform) leptin receptor expressed on transfected GT1-7 cells (mouse), P48356. Kind of test: cell-based or functional assay.
Sequence of OB-Rb, full-length (long isoform) leptin receptor expressed on transfected GT1-7 cells (mouse), P48356 (P48356 22-1162): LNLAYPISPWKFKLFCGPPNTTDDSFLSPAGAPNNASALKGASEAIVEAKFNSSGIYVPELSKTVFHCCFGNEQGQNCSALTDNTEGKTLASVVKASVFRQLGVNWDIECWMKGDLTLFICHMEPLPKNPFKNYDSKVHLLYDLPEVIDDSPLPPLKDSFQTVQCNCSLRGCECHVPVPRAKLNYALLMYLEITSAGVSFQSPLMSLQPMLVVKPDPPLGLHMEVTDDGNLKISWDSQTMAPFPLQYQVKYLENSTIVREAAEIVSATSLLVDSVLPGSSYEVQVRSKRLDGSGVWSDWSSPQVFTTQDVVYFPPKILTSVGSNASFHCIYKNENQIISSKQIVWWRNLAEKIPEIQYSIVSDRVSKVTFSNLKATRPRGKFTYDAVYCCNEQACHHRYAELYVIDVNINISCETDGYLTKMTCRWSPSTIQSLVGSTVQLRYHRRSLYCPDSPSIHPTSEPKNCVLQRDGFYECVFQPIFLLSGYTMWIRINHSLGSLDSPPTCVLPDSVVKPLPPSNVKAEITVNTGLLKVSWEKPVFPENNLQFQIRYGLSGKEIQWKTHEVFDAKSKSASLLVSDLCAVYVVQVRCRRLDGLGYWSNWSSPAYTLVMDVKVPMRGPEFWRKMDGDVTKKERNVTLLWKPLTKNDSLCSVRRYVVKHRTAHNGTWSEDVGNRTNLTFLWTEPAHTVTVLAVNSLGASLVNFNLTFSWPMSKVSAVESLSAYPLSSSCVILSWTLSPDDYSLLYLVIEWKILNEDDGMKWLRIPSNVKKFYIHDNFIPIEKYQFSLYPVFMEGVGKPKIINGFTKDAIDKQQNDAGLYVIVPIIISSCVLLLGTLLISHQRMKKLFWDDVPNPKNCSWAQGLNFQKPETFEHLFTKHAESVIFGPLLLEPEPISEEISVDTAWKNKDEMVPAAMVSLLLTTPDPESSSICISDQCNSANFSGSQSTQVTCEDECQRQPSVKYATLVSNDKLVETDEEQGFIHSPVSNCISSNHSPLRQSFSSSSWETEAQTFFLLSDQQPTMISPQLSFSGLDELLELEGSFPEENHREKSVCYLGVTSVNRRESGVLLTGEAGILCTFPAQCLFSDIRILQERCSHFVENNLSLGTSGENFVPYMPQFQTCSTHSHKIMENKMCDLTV

B1: recombinant mouse leptin, P41160 22-167 (ligand)
chain: VPIQKVQDDTKTLIKTIVTRINDISHTQSVSAKQRVTGLDFIPGLHPILSLSKMDQTLAVYQQVLTSLPSQNVLQIANDLENLRDLLHLLAFSKSCSLPQTSGLQKPESLDGVLEASLYSTEVVALSRLQGSLQDILQQLDVSPEC
B1 yielded an SEAP activity (HRRE-SEAP reporter in GT1-7 cells) of 11 fold.
